In PMC3961685, “Origin of the Proton-transfer Step in the Cofactor-free (1H)-3-Hydroxy-4-oxoquinaldine 2,4-Dioxygenase” (The Journal of Biological Chemistry, 2014):

How the values were obtained:
Cc1[nH]c2ccccc2c(=O)c1O = test: purified protein; type: biochemical, Paenarthrobacter nitroguajacolicus; conditions: pH 6.5, air-saturated 0.1 M MTE, 5 mM NaCl, 2 mM EDTA, 20 °C, O2 co-substrate, also measured at pH 10.5
[1] = biological target: T1, HOD (WT HOD = HOD C69S); (1H)-3-hydroxy-4-oxoquinaldine 2,4-dioxygenase (Paenarthrobacter nitroguajacolicus, UniProt O31266, C69S); test: anaerobic stopped-flow, QND deprotonation at […] nm, kobs vs [QND] fit; type: binding
T1 construct: full-length HOD C69S in pQE30 (His-tag vector, Ni column); ~31 kDa monomer

[2] = biological target: T2, HOD (WT HOD = HOD C69S); (1H)-3-hydroxy-4-oxoquinaldine 2,4-dioxygenase (Paenarthrobacter nitroguajacolicus, UniProt O31266, C69S/H251A); test: X-ray crystal structure, […] Å, crystal soaked with QND; type: binding; conditions: 2 mM QND soak about 2 h, pH 7.0; active site
T2 construct: full-length HOD C69S in pQE30 (His-tag vector, Ni column); ~31 kDa monomer
T2 sequence (O31266 whole entry C69S/H251A): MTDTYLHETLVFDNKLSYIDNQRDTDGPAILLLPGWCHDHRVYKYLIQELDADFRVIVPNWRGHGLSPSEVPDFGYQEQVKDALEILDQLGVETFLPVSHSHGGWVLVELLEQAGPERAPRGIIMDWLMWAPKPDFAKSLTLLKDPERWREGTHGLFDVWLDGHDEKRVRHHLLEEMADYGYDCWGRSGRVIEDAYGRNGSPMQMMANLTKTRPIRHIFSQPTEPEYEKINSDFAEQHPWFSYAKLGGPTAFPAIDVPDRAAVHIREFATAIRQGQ

T1 sequence (O31266 whole entry C69S): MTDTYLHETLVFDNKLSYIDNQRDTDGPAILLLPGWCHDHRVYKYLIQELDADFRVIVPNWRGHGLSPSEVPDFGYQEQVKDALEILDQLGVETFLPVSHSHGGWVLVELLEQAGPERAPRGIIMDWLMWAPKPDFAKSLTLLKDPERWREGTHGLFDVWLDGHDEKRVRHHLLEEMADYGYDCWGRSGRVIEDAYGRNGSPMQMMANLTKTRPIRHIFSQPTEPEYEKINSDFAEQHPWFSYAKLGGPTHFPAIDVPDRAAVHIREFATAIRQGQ

HOD (WT HOD = HOD C69S); (1H)-3-hydroxy-4-oxoquinaldine 2,4-dioxygenase (Paenarthrobacter nitroguajacolicus; C69S/H251A)
Km (Cc1[nH]c2ccccc2c(=O)c1O): 58.9 ± 14.6 µM | kcat (Cc1[nH]c2ccccc2c(=O)c1O): 0.0006 ± 0.0001 s⁻¹

HOD (WT HOD = HOD C69S); (1H)-3-hydroxy-4-oxoquinaldine 2,4-dioxygenase (Paenarthrobacter nitroguajacolicus; C69S/D126A)
Km (Cc1[nH]c2ccccc2c(=O)c1O): 20.9 ± 0.6 µM | kcat (Cc1[nH]c2ccccc2c(=O)c1O): 0.19 ± 0.01 s⁻¹

Cc1[nH]c2ccccc2c(=O)c1O [QND, (1H)-3-hydroxy-4-oxoquinaldine]
Kd [1]: 214 ± 9 µM | X-ray crystal structure, 1.95 Å, crystal soaked with QND [2]: we solved the x-ray structure of this variant in complex with the QND substrate

HOD (WT HOD = HOD C69S); (1H)-3-hydroxy-4-oxoquinaldine 2,4-dioxygenase (Paenarthrobacter nitroguajacolicus; C69S)
Km (Cc1[nH]c2ccccc2c(=O)c1O): 3.2 ± 0.1 µM | kcat (Cc1[nH]c2ccccc2c(=O)c1O): 16.3 ± 0.1 s⁻¹
